1 protein from article PMC3313952, “Multicopper Oxidase-3 Is a Laccase Associated with the Peritrophic Matrix of Anopheles gambiae” (PLoS ONE, 2012) can be followed below.

Assay in all cases: spectrophotometric product formation, Michaelis-Menten fit
Holding throughout (assay type): biochemical, Anopheles gambiae

Substrate in data set [1]: CC(=O)NCCc1ccc(O)c(O)c1
The note with it: pH 7.5, 0.1 M sodium phosphate; pH 7.5. From the text:
(§1) spectrophotometric product formation, Michaelis-Menten fit on AgMCO3

Substrate in data set [2]: CCn1c(=NN=c2sc3cc(S(=O)(=O)O)ccc3n2CC)sc2cc(S(=O)(=O)O)ccc21
As to conditions: pH 6.0, 0.1 M Mes; pH 6.0.
Description: as §1

Substrate in data set [3]: NCCC(=O)NCCc1ccc(O)c(O)c1
As to conditions: pH 7.0, 0.1 M sodium phosphate; pH 7.0.
Description: as §1

Substrate in data set [4]: NCCc1ccc(O)c(O)c1
The note with it: pH 7.5, 0.1 M sodium phosphate; pH 7.5.
Description: as §1

Substrate in data set [5]: N[C@@H](Cc1ccc(O)c(O)c1)C(=O)O
The note with it: pH 7.5, 0.1 M sodium phosphate; pH 7.5.
Description: as §1

Substrate in data set [6]: Oc1ccc(O)cc1
The note with it: pH 6.5, 0.1 M Mes; pH 6.5.
Description: as §1

Substrate in data set [7]: Oc1ccccc1O
As to conditions: pH 7.0, 0.1 M sodium phosphate; pH 7.0.
Description: as §1

B1: AgMCO3 (Anopheles gambiae) (protein)
chain: QSWLNTLLEQSNGTLDVSTFPGEQCLRECDNTQPRICHFSWTMEHYHVMGPACRDCAKGNHTDCYHPACITADGVERGVMSLNRKIPGPTISVCRHDLIVVDITNAMAGTSAAIHWHGLHQRATPYMDGVPFITQCPIGFGNTFRYAFLATEPGTQFYHSHSGHHKVNGHYGALIVREPKRVDPNGDLYHYDTPAHVILGSDWMHIDGEMFMPGLPSAGGIMPINLLINGKGTYHDPKKNETTQTPLEVYTVRRGARFRFRFINAASHVCPLQLQIEDHMMEVIASDSFHLQPRKVDTLVSTSGERYDFVLEANGVKDTYWVRLRSLGPCADLQLEQFAVLRYTTGPFINDAFPTGAPPTYEEPFRNVATANHPNATCGRPEFGDYCITDFQAYDTDEDVINGVPDHQLTFGFYNYPVSFESMFESNRYEHYMNIYGSVMMQGAINNISLAYPPFSLLTQPEKIRDDTFCDEDNRPDSCSDRQLCTCTHRVKINLGDIVELYILDLTPSVNDLNHPFHLHGYQMFVMEMSQDRRVPITLEIAQNIARQRLLSRNTVALPPRKDTVSIPSRGYARVRFRADNPGFWLMHCHYEWHTAVGMALVLQVGETSEMVKAPADFPKCDSYTPAVGHLLQGSL
notes: no tag mentioned; baculovirus / Sf9 host; cDNA identical to EF592176.2 except Leu instead of Pro at residue 15 in signal peptide (probable GenBank error)
Broadly, the Km is the substrate concentration at which the rate is half of its maximum. What is called kcat is the maximal rate divided by the concentration of active sites. A word on the kcat/Km: it is the second-order rate constant that governs catalysis at low substrate concentration. For the protein B1, the Michaelis-Menten constant (Km) worked out at 1000 µM in data set [1]; 8500 µM in data set [2]; 2200 µM in data set [3]; 1600 µM in data set [4]; 1400 µM in data set [5]; 5200 µM in data set [6]. The Michaelis-Menten constant (Km) in data set [7] came out at 2100 µM. The kcat in data set [1] came to 2.58 s⁻¹; in data set [2], 2.6 s⁻¹; in data set [3], 11.8 s⁻¹; in data set [4], 4.57 s⁻¹; in data set [5], 1.55 s⁻¹; in data set [6], 26.2 s⁻¹. Moreover, in data set [7], the kcat came to 5.1 s⁻¹. For the same protein, the kcat/Km was 2580 M⁻¹ s⁻¹ in data set [1]; 300 M⁻¹ s⁻¹ in data set [2]; 5380 M⁻¹ s⁻¹ in data set [3]; 2850 M⁻¹ s⁻¹ in data set [4]; 1100 M⁻¹ s⁻¹ in data set [5]; 5030 M⁻¹ s⁻¹ in data set [6]. In data set [7], the catalytic efficiency (kcat/Km) is 2430 M⁻¹ s⁻¹.
